Test results reported in article doi:10.1101/2025.08.27.672506.

Legend:
[1] = molecular target: wild-type H1/Mal07 HA ectodomain with the Foldon tag (influenza A virus A/Malaysia/1706215/2007 (H1N1) | T4); test: SEC
[2] = molecular target: wild-type H9/HK98 HA ectodomain with the Foldon tag (influenza A virus A/swine/Hong Kong/2106/98 (H9N2) | T4); test: SEC
[3] = molecular target: wild-type H1/Cal09 HA ectodomain with the Foldon trimerization tag (influenza A virus A/California/04/2009 (H1N1) | T4); test: SEC
[4] = molecular target: wild-type H1/Cal09 HA ectodomain with the Foldon trimerization tag (influenza A virus A/California/04/2009 (H1N1) | T4); test: cryo-EM 2D classification
[5] = molecular target: wild-type ectodomain of HA from /turkey/Ontario/6118/1968 (H8N4) (influenza A virus /turkey/Ontario/6118/1968 (H8N4)); test: SEC
[6] = molecular target: wild-type ectodomain of HA from A/gull/Maryland/704/1977 (H13N6) (influenza A virus A/gull/Maryland/704/1977 (H13N6)); test: SEC
[7] = molecular target: wild-type ectodomain of HA from A/swine/Hong Kong/2106/98 (H9N2) (influenza A virus A/swine/Hong Kong/2106/98 (H9N2)); test: SEC

Q: With “wild-type H1/Mal07 HA ectodomain with the Foldon tag” as the substance, how does the stoichiometry N [1] read?
A: Its stoichiometry N is 3.

Q: “wild-type H9/HK98 HA ectodomain with the Foldon tag” was tested. Which stoichiometry N [2] did it give?
A: The stoichiometry N was 3.

Q: For “wild-type H1/Cal09 HA ectodomain with the Foldon trimerization tag”, which stoichiometry N [3] is on record?
A: The stoichiometry N was 3.

Q: And the stoichiometry N [4]?
A: Its stoichiometry N is 3.

Q: How did the stoichiometry N [5] turn out when “wild-type ectodomain of HA from /turkey/Ontario/6118/1968 (H8N4) (domain or fragment)” was run?
A: The stoichiometry N was 3.

Q: “wild-type ectodomain of HA from A/gull/Maryland/704/1977 (H13N6) (domain or fragment)” was tested. Which stoichiometry N [6] did it give?
A: Its stoichiometry N is 3.

Q: For “wild-type ectodomain of HA from A/swine/Hong Kong/2106/98 (H9N2) (domain or fragment)”, which stoichiometry N [7] is on record?
A: Its stoichiometry N is 3.
